The text below walks through data of patent US20170065662A1.

For this assay, the target named is recombinant His-p27 (full-length p27Kip1, C-terminal histidine tag) (human) (UniProt P46527). In words: phage-ELISA, SH3-displaying phage on recombinant His-p27 (multivalent phage, which would enhance binding).

pKd: −log10 of the molar value.

Chain of recombinant His-p27 (full-length p27Kip1, C-terminal histidine tag) (human) (P46527 whole entry): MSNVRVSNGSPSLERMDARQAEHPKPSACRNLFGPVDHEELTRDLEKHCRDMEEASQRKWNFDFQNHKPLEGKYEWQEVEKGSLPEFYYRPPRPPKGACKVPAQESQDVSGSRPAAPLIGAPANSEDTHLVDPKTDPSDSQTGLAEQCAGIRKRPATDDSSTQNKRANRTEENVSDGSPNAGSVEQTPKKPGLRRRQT

As for “SH3 domain of Brk displayed on phage (from UniProt Q13882 12-70)”, the pKd is 6.60.
